Data as given in patent publication US20160031996A1 (CSL, published 2016).

Columns and labels:
[1] = target: T1, human IL-3Rα V53A, full length (human, UniProt P26951 19-378); experiment: Western blot, whole cell extracts of 293F cells
T1 construct: expressed in 293F cells; Western blot of whole cell extracts; also called V53, cell surface alanine
T1 sequence: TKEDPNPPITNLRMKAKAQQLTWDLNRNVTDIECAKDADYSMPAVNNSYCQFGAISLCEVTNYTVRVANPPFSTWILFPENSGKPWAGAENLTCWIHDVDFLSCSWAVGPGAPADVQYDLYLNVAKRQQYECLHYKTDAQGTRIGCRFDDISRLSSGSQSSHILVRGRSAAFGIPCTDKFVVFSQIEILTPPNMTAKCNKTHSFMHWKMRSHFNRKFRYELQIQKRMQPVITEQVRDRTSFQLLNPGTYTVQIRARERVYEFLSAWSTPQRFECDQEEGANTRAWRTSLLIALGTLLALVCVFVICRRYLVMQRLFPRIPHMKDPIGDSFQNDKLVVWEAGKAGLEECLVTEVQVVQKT

[2] = target: T2, human IL-3Rα I94A, full length (human, UniProt P26951 19-378); experiment: Western blot, whole cell extracts of 293F cells
T2 construct: expressed in 293F cells; Western blot of whole cell extracts; also called I94, cell surface alanine
T2 sequence: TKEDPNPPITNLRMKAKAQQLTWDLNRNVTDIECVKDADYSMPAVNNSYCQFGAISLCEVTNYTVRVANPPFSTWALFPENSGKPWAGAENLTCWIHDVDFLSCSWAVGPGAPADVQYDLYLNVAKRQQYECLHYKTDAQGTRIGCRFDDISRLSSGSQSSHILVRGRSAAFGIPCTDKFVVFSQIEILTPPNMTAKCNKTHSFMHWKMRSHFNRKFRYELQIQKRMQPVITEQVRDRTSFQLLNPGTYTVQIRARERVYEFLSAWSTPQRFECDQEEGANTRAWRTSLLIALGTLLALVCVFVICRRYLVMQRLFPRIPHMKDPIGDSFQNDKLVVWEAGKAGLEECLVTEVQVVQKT

[3] = target: T3, human IL-3Rα E51Q/S59A double mutant, full length (human, UniProt P26951 19-378); experiment: Western blot after SDS-PAGE of whole cell extracts
T3 chain: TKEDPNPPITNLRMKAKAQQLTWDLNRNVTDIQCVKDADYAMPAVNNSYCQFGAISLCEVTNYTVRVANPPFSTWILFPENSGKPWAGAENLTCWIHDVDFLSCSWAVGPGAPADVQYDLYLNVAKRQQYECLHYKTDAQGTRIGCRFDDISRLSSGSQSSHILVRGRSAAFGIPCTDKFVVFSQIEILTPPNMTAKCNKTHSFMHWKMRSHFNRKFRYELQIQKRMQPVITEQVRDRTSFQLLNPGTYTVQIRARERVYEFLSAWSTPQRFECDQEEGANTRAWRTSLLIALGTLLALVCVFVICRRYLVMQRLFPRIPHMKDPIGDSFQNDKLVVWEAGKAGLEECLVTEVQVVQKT

[4] = target: T4, human IL-3Rα E51Q/P88T double mutant, full length (human, UniProt P26951 19-378); experiment: Western blot after SDS-PAGE of whole cell extracts
T4 chain: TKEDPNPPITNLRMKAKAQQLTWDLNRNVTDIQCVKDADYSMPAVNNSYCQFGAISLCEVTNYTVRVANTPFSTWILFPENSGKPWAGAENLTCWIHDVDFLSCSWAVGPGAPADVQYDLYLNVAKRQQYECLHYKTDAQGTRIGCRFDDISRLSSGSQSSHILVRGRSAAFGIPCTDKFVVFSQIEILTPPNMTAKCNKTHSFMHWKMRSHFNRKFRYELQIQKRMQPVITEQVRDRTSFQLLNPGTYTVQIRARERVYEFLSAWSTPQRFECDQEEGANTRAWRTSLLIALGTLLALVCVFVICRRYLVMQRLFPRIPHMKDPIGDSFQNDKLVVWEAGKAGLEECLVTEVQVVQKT

[5] = target: T5, human IL-3Rα S59A/P88T double mutant, full length (human, UniProt P26951 19-378); experiment: Western blot after SDS-PAGE of whole cell extracts
T5 chain: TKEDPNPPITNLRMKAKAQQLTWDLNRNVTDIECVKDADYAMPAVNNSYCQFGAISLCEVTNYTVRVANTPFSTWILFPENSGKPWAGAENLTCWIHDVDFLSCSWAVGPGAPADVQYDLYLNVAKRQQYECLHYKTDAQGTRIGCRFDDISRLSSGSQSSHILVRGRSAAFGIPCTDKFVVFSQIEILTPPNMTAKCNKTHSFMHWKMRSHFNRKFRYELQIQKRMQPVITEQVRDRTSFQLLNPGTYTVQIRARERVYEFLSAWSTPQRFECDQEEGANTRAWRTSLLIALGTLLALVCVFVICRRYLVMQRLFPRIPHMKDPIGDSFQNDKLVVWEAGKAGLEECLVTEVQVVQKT

[6] = target: T6, human IL-3Rα E51Q/S59A/P88T triple mutant, full length (human, UniProt P26951 19-378); experiment: Western blot after SDS-PAGE of whole cell extracts
T6 chain: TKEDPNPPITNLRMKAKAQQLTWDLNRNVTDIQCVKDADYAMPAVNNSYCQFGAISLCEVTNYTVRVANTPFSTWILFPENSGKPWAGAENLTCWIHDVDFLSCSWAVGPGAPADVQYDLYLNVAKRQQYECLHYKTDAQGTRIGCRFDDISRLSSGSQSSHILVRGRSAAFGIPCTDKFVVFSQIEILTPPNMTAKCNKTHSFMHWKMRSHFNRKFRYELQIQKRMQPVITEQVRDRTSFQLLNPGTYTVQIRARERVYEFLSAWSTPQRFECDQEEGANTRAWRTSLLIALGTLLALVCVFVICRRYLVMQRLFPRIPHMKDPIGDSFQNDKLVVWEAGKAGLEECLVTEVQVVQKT

[7] = target: T7, soluble human IL-3Rα 1-306-His I50A (human, UniProt P26951 19-307); experiment: Western blot, supernatants of 293FS cells
T7 construct: supernatant of 293FS cells; also called I50, soluble alanine
T7 sequence: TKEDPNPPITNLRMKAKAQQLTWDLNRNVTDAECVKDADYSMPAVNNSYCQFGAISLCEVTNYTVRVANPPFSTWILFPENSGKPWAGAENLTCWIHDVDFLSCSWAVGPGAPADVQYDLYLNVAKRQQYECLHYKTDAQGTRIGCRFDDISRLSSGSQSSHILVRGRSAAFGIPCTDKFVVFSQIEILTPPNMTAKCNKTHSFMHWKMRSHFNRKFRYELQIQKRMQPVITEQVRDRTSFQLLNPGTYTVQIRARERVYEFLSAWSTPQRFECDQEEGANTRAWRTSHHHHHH

Measured: binding result

B1: monoclonal antibody 7G3 (antibody, V domains shown)
VH: EVQLQQSGPELVKPGASVKMSCKASGYTFTDYYMKWVKQSHGKSLEWIGDIIPSNGATFYNQKFKGKATLTVDRSSSTAYMHLNSLTSEDSAVYYCTRSHLLRASWFAYWGQGTLVTVSA
VL: DFVMTQSPSSLTVTAGEKVTMSCKSSQSLLNSGNQKNYLTWYLQKPGQPPKLLIYWASTRESGVPDRFTGSGSGTDFTLTISSVQAEDLAVYYCQNDYSYPYTFGGGTKLEIKR
notes: mouse monoclonal antibody (hybridoma ATCC HB-12009)
no binding: [1] | [2] | [3] | [4] | [5] | [6]

B2: antibody CSL362 (antibody, V domains shown)
VH: EVQLVQSGAEVKKPGESLKISCKGSGYSFTDYYMKWARQMPGKGLEWMGDIIPSNGATFYNQKFKGQVTISADKSISTTYLQWSSLKASDTAMYYCARSHLLRASWFAYWGQGTMVTVSS
VL: DIVMTQSPDSLAVSLGERATINCESSQSLLNSGNQKNYLTWYQQKPGQPPKPLIYWASTRESGVPDRFSGSGSGTDFTLTISSLQAEDVAVYYCQNDYSYPYTFGQGTKLEIKR
no binding: [7]
